In the supplement of paper PMC9170038:

Test system: MS2 coat protein
Assay: apparent KD of MS2 coat protein; higher = weaker reporter binding
Details: Eterna round: R107
In short: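 SNAP-549-labelled MS2 coat protein was titrated onto designed RNA switches that had been transcribed on-chip from Illumina sequencing clusters. Amounts doubled from 0.7 or 1.5 nM to 3 µM in 100 mM Tris-HCl pH 7.5, 80 mM KCl, 4 mM MgCl2, with constant ligand or without. Apparent KD is the median per design of normalised cluster binding-curve fits.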

[1] = input ligand: theophylline 20 uM
[2] = input ligand: tryptophan 2.4 mM
[3] = input ligand: theophylline 2 mM

Sequence | apparent KD of MS2 coat protein (input ligand: arginine 13.2 mM) | apparent KD of MS2 coat protein [1] | apparent KD of MS2 coat protein [2] | apparent KD of MS2 coat protein (input ligand: none) | apparent KD of MS2 coat protein [3]
UAACAUGAGGAUCACCCAUGUAUAGUCGAUACCAGCUCAAGGGAGAGCCCUUGGCAGCGACACUGGUAUCCAUGGGUGUGGAUAC [(Ms2)-(Theo)-(T)'-(M)'-(T)''_Design3] | 76.9 nM | 86.2 nM | 69.8 nM | – | –
GAUAGUUGAUGGGAUACCAGCCUACACAUGAGGAUCACCCAUGUGAUUCGUGUACGACUGGGCCCUUGGCAGCCCAUAUUGUGUA [#12 Same State - Theophylline B] | 46.1 nM | 202 nM | 128 nM | – | –
GCUGCUUUGGGAAGGAGCGCUGCGUUAUCAUGUUGGACAUGAGGAUCACCCAUGUAAAUGUAGCAGGUAGGUCGCUUAGGGCAGC [EAP NP+V+V2 #15] | 40.8 nM | 46 nM | 37.1 nM | 31.8 nM | 29.7 nM
UUAUAAGUACCGGUCCUCAGAUCCUCAUGACGAGGACCGGUACGGCCGCCACUCGAAACAUGAGGAUCACCCAUGUAAUAACAUC [Brourdmod21] | 19 nM | 27.5 nM | – | – | 25.9 nM
AGAUUACAUGUUUUAAUAAGAUAAACUGAUACCAGUGUAUAUAUUCACCCUUGGCAGCAGCAACAUGAGGAUCACCCAUGUAUUA [JR_SSTheophyA_Sub015] | 14.4 nM | 18.7 nM | 16.7 nM | – | –
ACAUGAGGAUCACCCAUGUACAUGAGGGAAGGAGCGGUACAUGUACCAGGUAGGUCGCCCAACAGCAUCAGCCAUGUACAUCAGC [ggvmullin] | 31.4 nM | 102 nM | 69 nM | 76.1 nM | 90.4 nM
UCGGGCAGAGCGGCCGCCACUGUUUGGCAUGCGGAUGAAGGAACAUGAGGAUCACCCAUGUAGAUUAGGACCGGGCUGGCGGAGA [jjhemullin] | 17.3 nM | 19.2 nM | 36.5 nM | 20.1 nM | 39.4 nM
UGUUUGGUGCGCGAGUGUUGGAUAAUUGAUACCAGUGUAGAUGUACGCCCUUGGCAGCGAAUCCGAACAUGAGGAUCACCCAUGU [5.aA] | 36.7 nM | 45.6 nM | 30.2 nM | – | –
ACAUGAGGGCGAAGGAGCGCGUACAUGAGGAUCACCCAUGUCUAUAUCCGUCCGCGUGUAACGCAGGUAGGUCGCGCUGUUAAUU [#14 Exclusion - Arginine B] | 15.4 nM | 21.6 nM | 16.2 nM | 16 nM | 20 nM
GACAUGAGGAUCACCCAUGUUUGCUAUGAAGGAGCGUCGGAAAUGACAGGUAGGUCGCAUAGUAGGCCUUGUAUUUUGUGUGUUU [EAA #8] | 11.4 nM | 14.4 nM | 10.5 nM | 10.1 nM | 10.8 nM
AGUAUUGGAAACAGUACUAGUGAUCCGGUCCGAGGACCGGUACGGCCGCCACUCGAAUUAAAUAAACAUGAGGAUCACCCAUGUA [Ex Tryptophan A 15] | 18.1 nM | 18.7 nM | – | – | 20.6 nM
AACAUGAGGAUCACCCAUGUAAAAUGGGAUACCAGAGACGAAAGUCUCCCUUGGCAGCCCACUGCCUCCUUUACGAAAGUAGAGG [Theophylline A 15] | 29.8 nM | 32.5 nM | 38.3 nM | – | –
GAUGAUAUUGCAGAUACCAGACACAUGAGGAUCACCCAUGUCGUUGGGUCGCUGGGUCGUGUCCCUUGGCAGCUGCGAUAUCAUC [#04 Exclusion-TheophyllineB] | 28 nM | 52.6 nM | 31 nM | – | –
AUACAUGAGGAUCACCCAUGUCAUACAGAAGGAGCGUCACAUAAGACAGGUAGGUCGCUGAUAAAUGGAUUAUAGUUUAUGAUUA [JR_SSArginiA_Sub016] | 17.5 nM | 29.6 nM | 18.7 nM | 18.6 nM | 20.3 nM
CCGCCCACGAAUGAUACCAGCUAAAAUCAUGUACCAGACACAUGAGGAUCACCCAUGUAAAGCCCUUGGCAGCGUACGCCACCCG [e-theoB-?] | 25.5 nM | 43.7 nM | 25.8 nM | – | –
AGUAAUAAUAUAAAUAAUAUUAGGUCAUGGCGAGGACCGGUACGGCCGCCACUCGGUUACAUGAGGAUCACCCAUGUCCCGCUUA [Exclusion - Tryptophan A] | 26.6 nM | 35 nM | – | – | 31.2 nM
AGUACUCGAACGGAUACCAGCCGGACAUGAGGAUCACCCAUGUCCUACCUAUGUUCGGUUGGCCCUUGGCAGCCGUUCGUGUACA [Omei Theo B SS A v6] | 171 nM | 707 nM | 430 nM | – | –
CAAUUUAGAAAACUAAAUUGAGUGGGUGAACGAGGACCGGUACGGCCGCCACUCGGACAUGAGGAUCACCCAUGUCCAUGUGAAA [AstrosExyTryA#23] | 11.3 nM | 15.8 nM | 29.2 nM | 14.8 nM | 16.6 nM
AUACAUGAGGAUCACCCAUGUUAUAGUGAAGGAGCGACAUUUAGGUCAGGUAGGUCGCACUAUAGUAUUAUAAUUCUUAGUUCUU [JR_ExcArginiA_Sub018] | 14.7 nM | 27.9 nM | 22 nM | 18.4 nM | 21.8 nM
UCAUGCAGGUCGGCCGCCACUACACACAUGAGGAUCACCCAUGUAGUUACUGGGUGAAGUGGCAGUAGGACCGGGACCUGCAUAC [Brourdmod09] | 89.1 nM | 604 nM | 78 nM | 591 nM | 342 nM
